Experimental data from publication doi:10.1101/2022.10.07.511266.

Target: integrin αIIbβ3 (human) (UniProt P05106)
Experiment: epifluorescence microscopy of co-clustering on giant unilamellar vesicles

stoichiometry N (talin:integrin) | stoichiometry N (scale: talin:integrin) | stoichiometry N (kindlin:integrin) | stoichiometry N (scale: kindlin:integrin) | Substance
2 | 3 |  |  | eGFP-talin F2-F3 (domain or fragment)
 |  | 3 | 4 | mCherry-kindlin-2 (from UniProt Q96AC1 1-680) (natural protein)
